According to article PMC4309369 (Cell reports, 2014):
Numbering of substitutions follows the chain as printed. In names and notes the source's numbering stands.

T1: SND1 SN1/2 domains (16–339) (human, UniProt Q7KZF4 16-339)
T1 sequence (looked up): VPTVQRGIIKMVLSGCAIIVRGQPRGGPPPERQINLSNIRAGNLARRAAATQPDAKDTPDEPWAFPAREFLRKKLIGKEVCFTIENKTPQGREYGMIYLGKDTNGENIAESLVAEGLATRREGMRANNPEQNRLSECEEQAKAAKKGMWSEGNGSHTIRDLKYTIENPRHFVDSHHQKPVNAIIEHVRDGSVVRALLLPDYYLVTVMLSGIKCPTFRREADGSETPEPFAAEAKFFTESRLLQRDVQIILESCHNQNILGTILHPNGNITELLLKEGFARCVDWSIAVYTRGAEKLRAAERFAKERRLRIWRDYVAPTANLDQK

T2: SND1 (16–339) R316E (human, UniProt Q7KZF4 16-339, R316E)
T2 sequence (looked up): T1 sequence (looked up) with R301E

T3: SND1 (16–339) R324A (human, UniProt Q7KZF4 16-339, R324A)
T3 sequence (looked up): T1 sequence (looked up) with R309A

T4: SND1 (16–339) R324E (human, UniProt Q7KZF4 16-339, R324E)
T4 sequence (looked up): T1 sequence (looked up) with R309E

B1: GST-tagged MTDH (364–582) (domain or fragment, human, UniProt Q86UE4 364-582, looked up)
chain: YQWDVSRNQPYIDDEWSGLNGLSSADPNSDWNAPAEEWGNWVDEERASLLKSQEPIPDDQKVSDDDKEKGEGALPTGKSKKKKKKKKKQGEDNSTAQDTEELEKEIREDLPVNTSKTRPKQEKAFSLKTISTSDPAEVLVKNSQPIKTLPPATSTEPSVILSKSDSDKSSSQVPPILQETDKSKSNTKQNSVPPSQTKSETSWESPKQIKKKKKARRET
B2: GST-tagged MTDH (364–582) D389R (domain or fragment, human, UniProt Q86UE4 364-582, looked up)
chain: B1 chain with D26R
B3: GST-tagged MTDH (364–582) E400R (domain or fragment, human, UniProt Q86UE4 364-582, looked up)
chain: B1 chain with E37R
B4: GST-tagged MTDH (364–582) E400A (domain or fragment, human, UniProt Q86UE4 364-582, looked up)
chain: B1 chain with E37A
B5: GST-tagged MTDH (364–582) N403A (domain or fragment, human, UniProt Q86UE4 364-582, looked up)
chain: B1 chain with N40A
B6: GST-tagged MTDH (364–582) N395A (domain or fragment, human, UniProt Q86UE4 364-582, looked up)
chain: B1 chain with N32A
B7: MTDH (386–407) (peptide, UniProt Q86UE4 386-407, looked up)
peptide: SSADPNSDWNAPAEEWGNWVDE

How the values were obtained:
[1] = biological target: T1, SND1 SN1/2 domains (16–339); experiment: ITC
[2] = biological target: T2, SND1 (16–339) R316E; experiment: pull-down
[3] = biological target: T3, SND1 (16–339) R324A; experiment: pull-down
[4] = biological target: T4, SND1 (16–339) R324E; experiment: pull-down
[5] = biological target: T1, SND1 SN1/2 domains (16–339); experiment: pull-down
[6] = biological target: T1, SND1 SN1/2 domains (16–339); experiment: crystal structure

Binder	binding result [5]	further results
B1	–	Kd [1]: ~600 nM; binding result [2]: binds; binding result [3]: binds; binding result [4]: binds
B2	binds	–
B3	binds	–
B4	binds	–
B5	binds	–
B6	binds	–
B7	–	binding result [6]: binds
